Measured values: doi:10.1101/801027

Target: T1, Hfq (Pseudomonas putida KT2440, UniProt Q88DD3 1-86)
T1 sequence: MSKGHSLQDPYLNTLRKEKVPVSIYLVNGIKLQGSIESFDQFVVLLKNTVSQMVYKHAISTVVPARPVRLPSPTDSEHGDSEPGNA
Experiment: EMSA

B1: MicC scaffold (structured_RNA)
RNA: UUUCUGUUGGGCCAUUGCAUUGCCACUGAUUUUCCAACAUAUAAAAAGACAAGCCCGAACAGUCGUCCGGGCUUUUUUU
B1: binds.
